Assay [1] deals with SARS-CoV S 2P prefusion-stabilized ectodomain trimer (SARS-CoV, Urbani (AAP13441, named for …, UniProt P59594, stabilised)). Kind of assay: SPR.
Assay [2] addresses MERS-CoV S 2P prefusion-stabilized ectodomain trimer (MERS-CoV, strain of ectodomain not …, stabilised). As to the kind of experiment: SPR.

This is an account of results in doi:10.1101/2021.05.09.442808 (bioRxiv, 2021).

B1: S2P6 Fab fragment (Fab, V domains shown)
VH: EVQLVQSGAEVKKPGASVKVSCKASGYTFTSQYMHWVRQAPGQGLEWIGIINPSGVHTSYAQKFQGRVTLTRDTSTSTLYMELSSLRSEDTAVYYCARGSPKGAFDYWGQGTLVTVSS
VL: not shown
As to B1, the Kd was 7 nM in assay [1] and 12 nM in assay [2].
